Assay results: patent US20120128758A1

Key:
[1] = biological target: TND-669S HIV-1 envelope (HIV-1); assay: cell-based or functional assay
[2] = biological target: SP62-L669S (gp41 652-671)-GTH1 peptide anchored to liposomes; assay: SPR on peptide-liposomes, encounter-docking (two-step) model, dissociation of the encounter step; row 'L669S 2F5 peptide liposome'
[3] = biological target: TND-669L HIV-1 envelope (HIV-1); assay: cell-based or functional assay
[4] = biological target: SP62-L669S (gp41 652-671)-GTH1 peptide anchored to liposomes; assay: SPR on peptide-liposomes, encounter-docking (two-step) model, reverse rate of the docking step; row 'L669S 2F5 peptide liposome'
[5] = biological target: SP62 (gp41 652-671)-GTH1 peptide anchored to liposomes; assay: SPR on peptide-liposomes, encounter-docking (two-step) model, association of the encounter step; row '2F5 peptide liposome'
[6] = biological target: SP62 (gp41 652-671)-GTH1 peptide anchored to liposomes; assay: SPR, peptide anchored to phospholipid liposomes
[7] = biological target: SP62-L669S (gp41 652-671)-GTH1 peptide anchored to liposomes; assay: SPR, peptide anchored to phospholipid liposomes
[8] = biological target: SP62 (gp41 652-671)-GTH1 peptide anchored to liposomes; assay: SPR on peptide-liposomes, encounter-docking (two-step) model, reverse rate of the docking step; row '2F5 peptide liposome'
[9] = biological target: SP62 (gp41 652-671)-GTH1 peptide anchored to liposomes; assay: SPR on peptide-liposomes, encounter-docking (two-step) model, dissociation of the encounter step; row '2F5 peptide liposome'
[10] = biological target: SP62-L669S (gp41 652-671)-GTH1 peptide anchored to liposomes; assay: SPR on peptide-liposomes, encounter-docking (two-step) model, association of the encounter step; row 'L669S 2F5 peptide liposome'
[11] = biological target: SP62-L669S (gp41 652-671)-GTH1 peptide anchored to liposomes; assay: SPR on peptide-liposomes, encounter-docking (two-step) model, forward rate of the docking step; row 'L669S 2F5 peptide liposome'
[12] = biological target: SP62 (gp41 652-671)-GTH1 peptide anchored to liposomes; assay: SPR on peptide-liposomes, encounter-docking (two-step) model, forward rate of the docking step; row '2F5 peptide liposome'

Q: For mAb 447-52D (antibody), which enhancement of neutralization sensitivity against TND-669L [1] is on record?
A: > 161 fold

Q: And the neutralization of Env-pseudovirus, IC50 [1]?
A: 0.31 µg/mL

Q: Which kd1 [2] does the source give for mAb 2F5 (antibody) here?
A: 0.00119 s⁻¹

Q: What about the mean IC50, neutralisation of Env-pseudovirus on JC53-BL cells [1] of the same substance?
A: 0.014 µg/mL

Q: And the mean IC50, neutralisation of Env-pseudovirus on JC53-BL cells [3]?
A: 3.92 µg/mL

Q: And the kd2 [4]?
A: 2e-05 s⁻¹

Q: And the ka1 [5]?
A: 931000 M⁻¹ s⁻¹

Q: What about the response unit at 10 seconds after the injection was stopped [6] of the same substance?
A: 495 RU

Q: What about the response unit (background subtracted) at 10 seconds after the injection was stopped [7] of the same substance?
A: 617 RU

Q: And the kd2 [8]?
A: 0.00037 s⁻¹

Q: What about the kd1 [9] of the same substance?
A: 0.00692 s⁻¹

Q: What about the ka1 [10] of the same substance?
A: 498000 M⁻¹ s⁻¹

Q: And the ka2 [11]?
A: 0.0054 s⁻¹

Q: And the ka2 [12]?
A: 0.0181 s⁻¹

Q: With mAb 17b (antibody) as the substance, how does the increase in neutralization sensitivity against TND-669L [1] read?
A: 2 fold

Q: For mAb 4E10 (antibody), which fold lower neutralisation IC50 against TND-669S than against TND-669L [1] is on record?
A: 275 fold

Q: What about the mean IC50, neutralisation of Env-pseudovirus on JC53-BL cells [1] of the same substance?
A: 0.031 µg/mL

Q: What about the mean IC50, neutralisation of Env-pseudovirus on JC53-BL cells [3] of the same substance?
A: 8.49 µg/mL
